Source: US10435480
Several values for one entry are separate records, joined by “and”; a condition that tells them apart may be missing. Equal values may be shown once.

Key:
OMP0 (E. coli) = OMP0 (E. coli) (UniProt P0A910); assay: M2 anti-FLAG-AP 1:1000 and PNPP on OMP0 treated PLA disc
[1] = biological target: Mouse IgG (Sigma Cat No. 15381) (mouse); assay: immunoassay, OMP18 adsorbed on hydrophilic plate, mouse IgG 2 ug/mL, anti-mouse IgG-AP and PNPP; well 1
[2] = biological target: Mouse IgG (Sigma Cat No. 15381) (mouse); assay: immunoassay, OMP18 adsorbed on hydrophobic plate, mouse IgG 2 ug/mL, anti-mouse IgG-AP and PNPP; well 2
[3] = biological target: Rabbit anti-mouse IgG-AP conjugate (Sigma Cat. No. A3688) (rabbit); assay: control without mouse IgG: conjugate only (1/5000) on OMP18, hydrophobic plate
[4] = biological target: Mouse IgG (Sigma Cat No. 15381) (mouse); assay: immunoassay, OMP18 adsorbed on hydrophobic plate, mouse IgG 2 ug/mL, anti-mouse IgG-AP and PNPP; well 1
[5] = biological target: Mouse IgG (Sigma Cat No. 15381) (mouse); assay: immunoassay, OMP18 adsorbed on hydrophilic plate, mouse IgG 2 ug/mL, anti-mouse IgG-AP and PNPP; well 2
[6] = biological target: Rabbit anti-mouse IgG-AP conjugate (Sigma Cat. No. A3688) (rabbit); assay: control without mouse IgG: conjugate only (1/5000) on OMP18, hydrophilic plate

Question: Which Absorbance at 405 nm (OMP0 (E. coli)) does the source give for “M2 anti-FLAG alkaline phosphatase conjugated antibody (Sigma Cat No. A9469)” here?
Answer: Its Absorbance at 405 nm is 0.312 A405 and 0.361 A405 and 0.374 A405.

Question: Which results are given for “OMP18 (from UniProt P38507 212-269; P38507 212-269)”?
Answer: A405 [1]: 2.24 A405; A405 [2]: 2.33 A405; A405 [3]: 0.056 A405; A405 [4]: 2.39 A405; A405 [5]: 2.23 A405; A405 [6]: 0.027 A405
